Laboratory results: US10052368B2, “Pegylated tissue kallikrein, and preparation method therefor and uses thereof” (ZONHON BIOPHARMA INSTITUTE INC., priority 2013, dated 2018)

Test system: cerebral ischemia reperfusion model of middle cerebral artery obstruction (MCAO)
Test: Cerebral ischemia reperfusion model of middle cerebral artery obstruction (MCAO)
Type: in vivo
Conditions: SD rats, 3 μg/kg once via vena caudalis
Excerpt: A cerebral ischemia reperfusion model of middle cerebral artery obstruction (MCAO) was established by thread embolizing the internal carotid artery of SD rats (purchased from Shanghai Sippr bk Laboratory Animal Co. LTD.) A positive control 1 group (urinary kallikrein, Guangdong Tianpu Biochemical Pharmaceutical Co., LTD.), a positive control 2 group (tPA, Shanghai Boehringer Ingelheim Pharmaceuticals Co., LTD), a model control group (PBS), a sham group, a kallikrein group (from Changzhou Qianhong Biochemical Pharmaceutical Co., LTD.), a conjugate 1 group, a conjugate 2 group, a conjugate 3 group, and a conjugate 4 group were arranged respectively. Administration by injection through vena caudalis was performed once at 3 μg/kg (calculated according to the protein amount) immediately after the cerebral ischemia reperfusion. Neurologic deficit symptoms were observed 24 h after the reperfusion, and the cerebral infarction area was determined. In the model group, an equal volume of PBS was injected through vena caudalis into the rat. In the sham group, only blood vessels were separated, no embolizing thread was inserted, and an equal volume of PBS was injected through vena caudalis into the rats. Neurologic deficit symptoms were evaluated employing an improved Bederson 5-point system method. Neurologic deficit symptoms of the rats after brain trauma were evaluated by a single-blind method, i.e., the animals were marked according to groups by designers of the experiment, and scores of the neurologic deficit symptoms were given by experimenters blind to the grouping situation. The cerebral infarction area was calculated employing the following method. Cerebrums of the SD rats were stained with TTC (2,3,5-triphenyltetrazolium chloride) and then the photographs were subjected to statistics using an image analysis software, and the percentage of cerebral infarction area was calculated according to the following formula: % cerebral infarction area=100×(total ischemic area/total area on the right side)

B1: Positive control 2: tPA, Shanghai Boehringer Ingelheim Pharmaceuticals (protein, UniProt P00750 36-562, looked up)
Tissue-type plasminogen …: SYQVICRDEKTQMIYQQHQSWLRPVLRSNRVEYCWCNSGRAQCHSVPVKSCSEPRCFNGGTCQQALYFSDFVCQCPEGFAGKCCEIDTRATCYEDQGISYRGTWSTAESGAECTNWNSSALAQKPYSGRRPDAIRLGLGNHNYCRNPDRDSKPWCYVFKAGKYSSEFCSTPACSEGNSDCYFGNGSAYRGTHSLTESGASCLPWNSMILIGKVYTAQNPSAQALGLGKHNYCRNPDGDAKPWCHVLKNRRLTWEYCDVPSCSTCGLRQYSQPQFRIKGGLFADIASHPWQAAIFAKHRRSPGERFLCGGILISSCWILSAAHCFQERFPPHHLTVILGRTYRVVPGEEEQKFEVEKYIVHKEFDDDTYDNDIALLQLKSDSSRCAQESSVVRTVCLPPADLQLPDWTECELSGYGKHEALSPFYSERLKEAHVRLYPSSRCTSQHLLNRTVTDNMLCAGDTRSGGPQANLHDACQGDSGGPLVCLNDGRMTLVGIISWGLGCGQKDVPGVYTKVTNYLDWIRDNMRP
amelioration of cerebral infarction status of the model animals (in words): no apparent amelioration
Cerebral infarction area (%) (24 h after reperfusion, TTC staining): 31.55 ± 2.71%
Score of neurologic deficit symptom (24 h after reperfusion, improved Bederson 5-point system): 3.00 ± 0.20
